# Experimental data as given in US20260167699A1 (Chugai, published 2026).
# T1: FcγRIIa(H) extracellular domain with C-terminal His tag (human, UniProt P12318 34-217)
# T1 construct: extracellular domain; H131 allotype; also called 2aH; CD32
# T1 sequence: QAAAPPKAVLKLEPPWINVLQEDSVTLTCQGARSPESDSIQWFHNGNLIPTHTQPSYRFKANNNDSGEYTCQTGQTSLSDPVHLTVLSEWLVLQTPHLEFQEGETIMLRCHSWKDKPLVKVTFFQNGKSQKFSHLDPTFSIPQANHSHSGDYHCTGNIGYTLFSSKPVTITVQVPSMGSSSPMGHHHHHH
# T2: FcγRIIa(R) extracellular domain with C-terminal His tag (human, UniProt P12318 34-217)
# T2 construct: extracellular domain; R131 allotype; also called 2aR; CD32
# T2 sequence: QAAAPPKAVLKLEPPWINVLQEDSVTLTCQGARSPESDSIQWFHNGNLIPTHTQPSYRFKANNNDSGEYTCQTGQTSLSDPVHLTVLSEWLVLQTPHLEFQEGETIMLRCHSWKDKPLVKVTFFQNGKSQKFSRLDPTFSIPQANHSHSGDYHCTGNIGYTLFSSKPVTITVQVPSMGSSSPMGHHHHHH
# T3: FcγRIIb extracellular domain with C-terminal His tag (human, UniProt P31994 43-217)
# T3 construct: extracellular domain; also called 2b; CD32
# T3 sequence: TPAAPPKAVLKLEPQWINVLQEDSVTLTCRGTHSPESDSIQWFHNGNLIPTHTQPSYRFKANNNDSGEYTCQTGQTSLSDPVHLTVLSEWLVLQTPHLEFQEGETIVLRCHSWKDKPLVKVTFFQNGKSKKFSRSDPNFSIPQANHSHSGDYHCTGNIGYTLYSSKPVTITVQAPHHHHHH
# What was measured:
# Experiment in all cases: SPR; % of GpH7-A5/GpH7-B3/GpL16-k0
# [1] = target: T4, FcγRIa extracellular domain with C-terminal His tag (human, UniProt P12314 16-292)
# T4 construct: extracellular domain; also called 1a; CD64
# T4 sequence (P12314 other isoform, or with tags, fused parts or gaps): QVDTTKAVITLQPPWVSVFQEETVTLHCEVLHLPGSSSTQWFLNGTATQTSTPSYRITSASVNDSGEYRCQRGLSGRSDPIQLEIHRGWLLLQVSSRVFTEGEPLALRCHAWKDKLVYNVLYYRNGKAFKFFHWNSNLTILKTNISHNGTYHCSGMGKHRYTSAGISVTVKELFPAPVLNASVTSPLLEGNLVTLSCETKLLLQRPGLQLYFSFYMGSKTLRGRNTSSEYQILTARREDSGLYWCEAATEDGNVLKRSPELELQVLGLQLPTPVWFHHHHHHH
# [2] = target: T1, FcγRIIa(H) extracellular domain with …
# [3] = target: T2, FcγRIIa(R) extracellular domain with …
# [4] = target: T5, FcγRIIIa extracellular domain with C-terminal His tag (human, UniProt P08637 17-208)
# T5 construct: extracellular domain; also called 3a; CD16
# T5 sequence (P08637 other isoform, or with tags, fused parts or gaps): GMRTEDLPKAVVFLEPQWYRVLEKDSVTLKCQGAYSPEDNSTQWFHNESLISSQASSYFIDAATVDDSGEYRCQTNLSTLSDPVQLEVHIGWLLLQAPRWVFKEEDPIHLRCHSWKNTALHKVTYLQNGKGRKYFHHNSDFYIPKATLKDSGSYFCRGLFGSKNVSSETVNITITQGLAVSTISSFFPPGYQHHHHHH
# [5] = target: T3, FcγRIIb extracellular domain with …
Binder,He/Con 1a [1],He/Con 2aH [2],He/Con 2aR [3],He/Con 3a [4],He/Con 2b [5]
"GpH7-A5/GpH7-B3 variant I336_18N/GpL16-k0 (antibody, human IgG1, kappa, heterodimerized IgG1 (He Ab), mutation in one H chain only; also called He Ab) heavy 1: not shown heavy 2: not shown light: DIVMTQSPLSLPVTPGEPASISCQASESLVHSNRNTYLHWYLQKPGQSPQLLIYKVSNRFSGVPDRFSGSGSGTDFTLKISRVEAEDVGVYYCSQNTHVPPTFGQGTKVEIERTVAAPSVFIFPPSDEQLKSGTASVVCLLNNFYPREAKVQWKVDNALQSGNSQESVTEQDSKDSTYSLSSTLTLSKADYEKHKVYACEVTHQGLSSPVTKSFNRGEC",111%,107%,110%,99.4%,107%
"GpH7-A5/GpH7-B3 variant K334_10E/GpL16-k0 (antibody, human IgG1, kappa, heterodimerized IgG1 (He Ab), mutation in one H chain only; also called He Ab) heavy 1: not shown heavy 2: not shown light: DIVMTQSPLSLPVTPGEPASISCQASESLVHSNRNTYLHWYLQKPGQSPQLLIYKVSNRFSGVPDRFSGSGSGTDFTLKISRVEAEDVGVYYCSQNTHVPPTFGQGTKVEIERTVAAPSVFIFPPSDEQLKSGTASVVCLLNNFYPREAKVQWKVDNALQSGNSQESVTEQDSKDSTYSLSSTLTLSKADYEKHKVYACEVTHQGLSSPVTKSFNRGEC",104%,113%,144%,186%,148%
"GpH7-A5/GpH7-B3 variant I336_19Q/GpL16-k0 (antibody, human IgG1, kappa, heterodimerized IgG1 (He Ab), mutation in one H chain only; also called He Ab) heavy 1: not shown heavy 2: not shown light: DIVMTQSPLSLPVTPGEPASISCQASESLVHSNRNTYLHWYLQKPGQSPQLLIYKVSNRFSGVPDRFSGSGSGTDFTLKISRVEAEDVGVYYCSQNTHVPPTFGQGTKVEIERTVAAPSVFIFPPSDEQLKSGTASVVCLLNNFYPREAKVQWKVDNALQSGNSQESVTEQDSKDSTYSLSSTLTLSKADYEKHKVYACEVTHQGLSSPVTKSFNRGEC",107%,76.4%,70.9%,88.4%,63.6%
"GpH7-A5/GpH7-B3 variant K334_05P/GpL16-k0 (antibody, human IgG1, kappa, heterodimerized IgG1 (He Ab), mutation in one H chain only; also called He Ab) heavy 1: not shown heavy 2: not shown light: DIVMTQSPLSLPVTPGEPASISCQASESLVHSNRNTYLHWYLQKPGQSPQLLIYKVSNRFSGVPDRFSGSGSGTDFTLKISRVEAEDVGVYYCSQNTHVPPTFGQGTKVEIERTVAAPSVFIFPPSDEQLKSGTASVVCLLNNFYPREAKVQWKVDNALQSGNSQESVTEQDSKDSTYSLSSTLTLSKADYEKHKVYACEVTHQGLSSPVTKSFNRGEC",98.7%,112%,141%,138%,136%
"GpH7-A5/GpH7-B3 variant K334_03V/GpL16-k0 (antibody, human IgG1, kappa, heterodimerized IgG1 (He Ab), mutation in one H chain only; also called He Ab) heavy 1: not shown heavy 2: not shown light: DIVMTQSPLSLPVTPGEPASISCQASESLVHSNRNTYLHWYLQKPGQSPQLLIYKVSNRFSGVPDRFSGSGSGTDFTLKISRVEAEDVGVYYCSQNTHVPPTFGQGTKVEIERTVAAPSVFIFPPSDEQLKSGTASVVCLLNNFYPREAKVQWKVDNALQSGNSQESVTEQDSKDSTYSLSSTLTLSKADYEKHKVYACEVTHQGLSSPVTKSFNRGEC",99.1%,126%,160%,154%,161%
"GpH7-A5/GpH7-B3 variant K334_12R/GpL16-k0 (antibody, human IgG1, kappa, heterodimerized IgG1 (He Ab), mutation in one H chain only; also called He Ab) heavy 1: not shown heavy 2: not shown light: DIVMTQSPLSLPVTPGEPASISCQASESLVHSNRNTYLHWYLQKPGQSPQLLIYKVSNRFSGVPDRFSGSGSGTDFTLKISRVEAEDVGVYYCSQNTHVPPTFGQGTKVEIERTVAAPSVFIFPPSDEQLKSGTASVVCLLNNFYPREAKVQWKVDNALQSGNSQESVTEQDSKDSTYSLSSTLTLSKADYEKHKVYACEVTHQGLSSPVTKSFNRGEC",98.2%,114%,151%,93.5%,144%
"GpH7-A5/GpH7-B3 variant K334_09D/GpL16-k0 (antibody, human IgG1, kappa, heterodimerized IgG1 (He Ab), mutation in one H chain only; also called He Ab) heavy 1: not shown heavy 2: not shown light: DIVMTQSPLSLPVTPGEPASISCQASESLVHSNRNTYLHWYLQKPGQSPQLLIYKVSNRFSGVPDRFSGSGSGTDFTLKISRVEAEDVGVYYCSQNTHVPPTFGQGTKVEIERTVAAPSVFIFPPSDEQLKSGTASVVCLLNNFYPREAKVQWKVDNALQSGNSQESVTEQDSKDSTYSLSSTLTLSKADYEKHKVYACEVTHQGLSSPVTKSFNRGEC",101%,95.6%,127%,164%,122%
"GpH7-A5/GpH7-B3 variant K334_08L/GpL16-k0 (antibody, human IgG1, kappa, heterodimerized IgG1 (He Ab), mutation in one H chain only; also called He Ab) heavy 1: not shown heavy 2: not shown light: DIVMTQSPLSLPVTPGEPASISCQASESLVHSNRNTYLHWYLQKPGQSPQLLIYKVSNRFSGVPDRFSGSGSGTDFTLKISRVEAEDVGVYYCSQNTHVPPTFGQGTKVEIERTVAAPSVFIFPPSDEQLKSGTASVVCLLNNFYPREAKVQWKVDNALQSGNSQESVTEQDSKDSTYSLSSTLTLSKADYEKHKVYACEVTHQGLSSPVTKSFNRGEC",99.1%,120%,145%,148%,137%
"GpH7-A5/GpH7-B3 variant K334_04F/GpL16-k0 (antibody, human IgG1, kappa, heterodimerized IgG1 (He Ab), mutation in one H chain only; also called He Ab) heavy 1: not shown heavy 2: not shown light: DIVMTQSPLSLPVTPGEPASISCQASESLVHSNRNTYLHWYLQKPGQSPQLLIYKVSNRFSGVPDRFSGSGSGTDFTLKISRVEAEDVGVYYCSQNTHVPPTFGQGTKVEIERTVAAPSVFIFPPSDEQLKSGTASVVCLLNNFYPREAKVQWKVDNALQSGNSQESVTEQDSKDSTYSLSSTLTLSKADYEKHKVYACEVTHQGLSSPVTKSFNRGEC",99.6%,121%,150%,152%,143%
"GpH7-A5/GpH7-B3 variant K334_07I/GpL16-k0 (antibody, human IgG1, kappa, heterodimerized IgG1 (He Ab), mutation in one H chain only; also called He Ab) heavy 1: not shown heavy 2: not shown light: DIVMTQSPLSLPVTPGEPASISCQASESLVHSNRNTYLHWYLQKPGQSPQLLIYKVSNRFSGVPDRFSGSGSGTDFTLKISRVEAEDVGVYYCSQNTHVPPTFGQGTKVEIERTVAAPSVFIFPPSDEQLKSGTASVVCLLNNFYPREAKVQWKVDNALQSGNSQESVTEQDSKDSTYSLSSTLTLSKADYEKHKVYACEVTHQGLSSPVTKSFNRGEC",98.7%,126%,155%,156%,154%
"GpH7-A5/GpH7-B3 variant K334_01G/GpL16-k0 (antibody, human IgG1, kappa, heterodimerized IgG1 (He Ab), mutation in one H chain only; also called He Ab) heavy 1: not shown heavy 2: not shown light: DIVMTQSPLSLPVTPGEPASISCQASESLVHSNRNTYLHWYLQKPGQSPQLLIYKVSNRFSGVPDRFSGSGSGTDFTLKISRVEAEDVGVYYCSQNTHVPPTFGQGTKVEIERTVAAPSVFIFPPSDEQLKSGTASVVCLLNNFYPREAKVQWKVDNALQSGNSQESVTEQDSKDSTYSLSSTLTLSKADYEKHKVYACEVTHQGLSSPVTKSFNRGEC",98%,92.5%,127%,125%,119%
"GpH7-A5/GpH7-B3 variant K334_02A/GpL16-k0 (antibody, human IgG1, kappa, heterodimerized IgG1 (He Ab), mutation in one H chain only; also called He Ab) heavy 1: not shown heavy 2: not shown light: DIVMTQSPLSLPVTPGEPASISCQASESLVHSNRNTYLHWYLQKPGQSPQLLIYKVSNRFSGVPDRFSGSGSGTDFTLKISRVEAEDVGVYYCSQNTHVPPTFGQGTKVEIERTVAAPSVFIFPPSDEQLKSGTASVVCLLNNFYPREAKVQWKVDNALQSGNSQESVTEQDSKDSTYSLSSTLTLSKADYEKHKVYACEVTHQGLSSPVTKSFNRGEC",100%,111%,143%,152%,139%
"GpH7-A5/GpH7-B3 variant K334_06M/GpL16-k0 (antibody, human IgG1, kappa, heterodimerized IgG1 (He Ab), mutation in one H chain only; also called He Ab) heavy 1: not shown heavy 2: not shown light: DIVMTQSPLSLPVTPGEPASISCQASESLVHSNRNTYLHWYLQKPGQSPQLLIYKVSNRFSGVPDRFSGSGSGTDFTLKISRVEAEDVGVYYCSQNTHVPPTFGQGTKVEIERTVAAPSVFIFPPSDEQLKSGTASVVCLLNNFYPREAKVQWKVDNALQSGNSQESVTEQDSKDSTYSLSSTLTLSKADYEKHKVYACEVTHQGLSSPVTKSFNRGEC",99%,121%,144%,149%,141%
